Assay results: patent US20180117174A1 (GANYMED PHARMACEUTICALS, published 2018)

How the values were obtained:
[1] = biological target: T1, human claudin 18 splice variant 2 (CLDN18.2) (human); assay: flow cytometry on BxPC-3~CLDN18.2 cells, second assay
T1 construct: also called claudin 18 isotype 2

[2] = biological target: T1, human claudin 18 splice variant 2 …; assay: flow cytometry, HEK293 cells stably expressing CLDN18.2; ProteinL-FITC detection; binding assay 4
[3] = biological target: T1, human claudin 18 splice variant 2 …; assay: cell-based or functional assay
[4] = biological target: T1, human claudin 18 splice variant 2 …; assay: cell-based or functional assay; remark: listed apart in the source
[5] = biological target: T1, human claudin 18 splice variant 2 …; assay: cell-based or functional assay; remark: listed apart in the source
[6] = biological target: T1, human claudin 18 splice variant 2 …; assay: flow cytometry on NUGC-4 10cF7-5 sort 3a cells (endogenous CLDN18.2), second assay
[7] = biological target: T1, human claudin 18 splice variant 2 …; assay: flow cytometry, HEK293 cells stably expressing CLDN18.2; APC-conjugated secondary antibody; binding assay 1
[8] = biological target: T1, human claudin 18 splice variant 2 …; assay: flow cytometry on NCI-N87~CLDN18.2 cells, antibody up to 20 µg/ml
Procedure: (§1) 100 μl of the cell suspension per well (correspond to 2×10⁵ cells/well) were transferred to a round bottom 96-well microtiter plate. […] The cells were centrifuged for 1 min at 1500 rpm and the supernatant was discarded. […] After incubation, 100 μl FACS buffer were added to each sample, the cells were centrifuged for 1 min at 1500 rpm and the supernatant was discarded. The washing step with FACS buffer was repeated twice. Finally, the cells were resuspended in 100 μl FACS buffer and binding was determined using a BD FACS Array Bioanalyzer.

[9] = biological target: T1, human claudin 18 splice variant 2 …; assay: flow cytometry on NUGC-4 10cE8 cells (endogenous CLDN18.2), second assay
[10] = biological target: T1, human claudin 18 splice variant 2 …; assay: flow cytometry (Table 6); APC-conjugated secondary antibody; binding assay 1
Procedure: as §1
(§2) Antibodies marked with the same number (1 or 2) were tested in the same binding assay.

[11] = biological target: T1, human claudin 18 splice variant 2 …; assay: flow cytometry, HEK293 cells stably expressing CLDN18.2; APC-conjugated secondary antibody; binding assay 3
Procedure: as §1

[12] = biological target: T1, human claudin 18 splice variant 2 …; assay: flow cytometry, HEK293 cells stably expressing CLDN18.2; APC-conjugated secondary antibody; binding assay 2
[13] = biological target: T1, human claudin 18 splice variant 2 …; assay: flow cytometry on BxPC-3~CLDN18.2 cells, antibody up to 20 µg/ml
Procedure: as §1

[14] = biological target: T1, human claudin 18 splice variant 2 …; assay: flow cytometry on HEK293~CLDN18.2 cells, antibody up to 20 µg/ml
Procedure: Binding was analyzed by flow cytometry at antibody concentrations up to 20 μg/ml. Data points (n=2 replicates) are depicted as mean±SD.
as §1
The binding specificity was analyzed by flow cytometry using HEK293 transfectants engineered to overexpress human CLDN18.2 or the highly homologous protein human CLDN18.1.

[15] = biological target: T1, human claudin 18 splice variant 2 …; assay: flow cytometry (Table 6); ProteinL-FITC detection; binding assay 2
Procedure: as §1, §2

B1: IMAB362 (antibody, V domains shown)
VH: QVQLQQPGAELVRPGASVKLSCKASGYTFTSYWINWVKQRPGQGLEWIGNIYPSDSYTNYNQKFKDKATLTVDKSSSTAYMQLSSPTSEDSAVYYCTRSWRGNSFDYWGQGTTLTVSS
VL: DIVMTQSPSSLTVTAGEKVTMSCKSSQSLLNSGNQKNYLTWYQQKPGQPPKLLIYWASTRESGVPDRFTGSGSGTDFTLTISSVQAEDLAVYYCQNDYSYPFTFGSGTKLEIKR
notes: Chimeric human IgG1 kappa; CDR1 at 45-52); also called chim mAb362; chim mAB362
EC50 [1]: 0.113 µg/mL
EC50 [2]: 1.24 µg/mL
Max. binding [MFI] [2]: 5320 MFI
Cell viability EC50 [ng/ml], Fab-ZAP endocytosis assay on HEK293~CLDN18.2 cells [3]: 11 ng/mL
Cell viability EC50 [ng/ml], Fab-ZAP endocytosis assay on HEK293~CLDN18.2 cells (second assay) [3]: 13 ng/mL
CDC EC50 [ng/ml], KATO-III FGF-BP#12 adM p3151#25 cells [4]: 19300 ng/mL
CDC EC50 [ng/ml], NUGC-4 10cF7_5 sort3a p3151#10 cells [4]: 28000 ng/mL
ADCC EC50 [ng/ml], NUGC-4 10cF7_5 sort3a p3151#10 cells, PBMC of Donor 1 [5]: 1230 ng/mL
ADCC EC50 [ng/ml], NUGC-4 10cF7_5 sort3a p3151#10 cells, PBMC of Donor 2 [5]: 142 ng/mL
EC50 [6]: 2.38 µg/mL
EC50 [7]: 0.52 µg/mL
EC50 [8]: 0.31 µg/mL
EC50 [9]: 3.67 µg/mL
EC50 [10]: 0.584 µg/mL
Max. binding [MFI] [10]: 18500 MFI
EC50 [11]: 0.652 µg/mL
Max. binding [MFI] [11]: 7950 MFI
EC50 [12]: 0.584 µg/mL
EC50 [13]: 0.104 µg/mL
EC50 [14]: 1.12 µg/mL
EC50 [15]: 1.24 µg/mL
